According to patent US20220144956A1 (published 2022):
Substitutions are numbered along the chain they refer to.

B1: H1.42 L1 XENP34498 (antibody, V domains shown)
VH: QLQVQESGPGLVKPSETLSLTCTVSGGSISNSYFSWGWIRQPPGKGLEWIGNFYYGEKTYYNPSLKSRATISIDTSKSQFSLKLSSVTAADTAVYYCPRGPTMIRGVIDSWGQGTLVTVSS
VL: EIVLTQSPATLSLSPGERATLSCRASQSVRSYLAWYQQKPGQAPRLLIYDASNRATGIPARFSGSGSGTDFTLTISSLEPEDFAVYYCQQRSNWPPTFGQGTKVEIK
B2: H1.61 L1 XENP34517 (antibody, V domains shown)
VH: B1 VH with N52S, T59I
VL: B1 VL
B3: H1.54 L1 XENP34510 (antibody, V domains shown)
VH: B1 VH with N52S, Y55S
VL: B1 VL
B4: XENP36169 H1.186 L1 (antibody, V domains shown)
VH: B1 VH with N31E, N52S, E57G, S78N, P98A, M103T
VL: B1 VL
B5: XENP36175 H1.192 L1 (antibody, V domains shown)
VH: B1 VH with N31T, N52S, E57G, S78N, P98A
VL: B1 VL
B6: XENP36179 H1.196 L1 (antibody, V domains shown)
VH: B1 VH with N31Q, N52S, E57G, S78N, P98A
VL: B1 VL
B7: XENP35104 H1.29 L1 (antibody, V domains shown)
VH: B1 VH with S35T, N52S
VL: B1 VL
B8: XENP36167 H1.184 L1 (antibody, V domains shown)
VH: B1 VH with N31E, N52S, E57G, S78N, P98A
VL: B1 VL
B9: XENP36176 H1.193 L1 (antibody, V domains shown)
VH: B1 VH with N31T, N52S, E57G, S78N, P98A, M103L
VL: B1 VL
B10: XENP36164 H1.181 L1 (antibody, V domains shown)
VH: B1 VH with N52S, E57G, S78N, P98A
VL: B1 VL
B11: XENP35107 H1.36 L1 (antibody, V domains shown)
VH: B1 VH with G37S, N52S
VL: B1 VL
B12: XENP36170 H1.187 L1 (antibody, V domains shown)
VH: B1 VH with N31E, N52S, E57G, S78N, P98A, M103V
VL: B1 VL
B13: XENP36183 H1.200 L1 (antibody, V domains shown)
VH: B1 VH with S32A, N52S, E57G, S78N, P98A
VL: B1 VL
B14: XENP36184 H1.201 L1 (antibody, V domains shown)
VH: B1 VH with S32A, N52S, E57G, S78N, P98A, M103L
VL: B1 VL
B15: XENP36185 H1.202 L1 (antibody, V domains shown)
VH: B1 VH with S32A, N52S, E57G, S78N, P98A, M103T
VL: B1 VL
B16: XENP36177 H1.194 L1 (antibody, V domains shown)
VH: B1 VH with N31T, N52S, E57G, S78N, P98A, M103T
VL: B1 VL
B17: H1.107 L1 XENP34563 (antibody, V domains shown)
VH: B1 VH with N52S, L116T
VL: B1 VL
B18: H1 L1.5 XENP34568 (antibody, V domains shown)
VH: B1 VH with N52S
VL: B1 VL with A19V
B19: H1.87 L1 XENP34543 (antibody, V domains shown)
VH: B1 VH with N52S, M103Q
VL: B1 VL
B20: H1.81 L1 XENP34537 (antibody, V domains shown)
VH: B1 VH with N52S, T102N
VL: B1 VL
B21: H1.98 L1 XENP34554 (antibody, V domains shown)
VH: B1 VH with N52S, V107A
VL: B1 VL
B22: H1 L1.1 XENP34564 (antibody, V domains shown)
VH: B1 VH with N52S
VL: B1 VL with L4M
B23: H1.85 L1 XENP34541 (antibody, V domains shown)
VH: B1 VH with N52S, M103S
VL: B1 VL
B24: H1 L1.7 XENP34570 (antibody, V domains shown)
VH: B1 VH with N52S
VL: B1 VL with S28G
B25: H1 L1.4 XENP34567 (antibody, V domains shown)
VH: B1 VH with N52S
VL: B1 VL with L13V
B26: H1.84 L1 XENP34540 (antibody, V domains shown)
VH: B1 VH with N52S, M103E
VL: B1 VL
B27: H1 L1.2 XENP34565 (antibody, V domains shown)
VH: B1 VH with N52S
VL: B1 VL with A9G
B28: H1.88 L1 XENP34544 (antibody, V domains shown)
VH: B1 VH with N52S, I104A
VL: B1 VL
B29: H1.86 L1 XENP34542 (antibody, V domains shown)
VH: B1 VH with N52S, M103T
VL: B1 VL
B30: H1.78 L1 XENP34534 (antibody, V domains shown)
VH: B1 VH with N52S, P98A
VL: B1 VL
B31: H1.103 L1 XENP34559 (antibody, V domains shown)
VH: B1 VH with N52S, S110L
VL: B1 VL
B32: H1 L1.6 XENP34569 (antibody, V domains shown)
VH: B1 VH with N52S
VL: B1 VL with R24G
B33: H1.105 L1 XENP34561 (antibody, V domains shown)
VH: B1 VH with N52S, S110Y
VL: B1 VL
B34: H1.95 L1 XENP34551 (antibody, V domains shown)
VH: B1 VH with N52S, R105K
VL: B1 VL
B35: H1 L1.3 XENP34566 (antibody, V domains shown)
VH: B1 VH with N52S
VL: B1 VL with A9P
B36: H1.77 L1 XENP34533 (antibody, V domains shown)
VH: B1 VH with N52S, A90V
VL: B1 VL
B37: H1.89 L1 XENP34545 (antibody, V domains shown)
VH: B1 VH with N52S, I104D
VL: B1 VL
B38: H1.82 L1 XENP34538 (antibody, V domains shown)
VH: B1 VH with N52S, T102S
VL: B1 VL
B39: H1.104 L1 XENP34560 (antibody, V domains shown)
VH: B1 VH with N52S, S110V
VL: B1 VL
B40: H1.106 L1 XENP34562 (antibody, V domains shown)
VH: B1 VH with N52S, L116M
VL: B1 VL
B41: H1.102 L1 XENP34558 (antibody, V domains shown)
VH: B1 VH with N52S, S110H
VL: B1 VL
B42: H1.101 L1 XENP34557 (antibody, V domains shown)
VH: B1 VH with N52S, I108M
VL: B1 VL
B43: H1.90 L1 XENP34546 (antibody, V domains shown)
VH: B1 VH with N52S, I104N
VL: B1 VL
B44: H1.83 L1 XENP34539 (antibody, V domains shown)
VH: B1 VH with N52S, M103A
VL: B1 VL
B45: H1.91 L1 XENP34547 (antibody, V domains shown)
VH: B1 VH with N52S, I104V
VL: B1 VL
B46: H1.99 L1 XENP34555 (antibody, V domains shown)
VH: B1 VH with N52S, V107S
VL: B1 VL
B47: H1.100 L1 XENP34556 (antibody, V domains shown)
VH: B1 VH with N52S, I108F
VL: B1 VL

biological target: T1, human TGFßRII (antigen of the Octet experiments) (human, UniProt P37173 23-166); assay: BLI (Octet)
T1 sequence (P37173 23-166): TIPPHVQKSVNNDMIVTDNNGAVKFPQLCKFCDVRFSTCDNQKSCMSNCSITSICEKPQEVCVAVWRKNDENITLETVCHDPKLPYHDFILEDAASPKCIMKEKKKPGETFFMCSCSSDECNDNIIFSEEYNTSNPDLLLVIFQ

Binder | Kd [pM]
B1 | 2590
B2 | 791
B3 | 666

biological target: T1, human TGFßRII (antigen of the Octet …); assay: not given

Binder | Kd [pM]
B4 | 10100
B5 | 4380
B6 | 3690
B7 | 2430
B8 | 4340
B9 | 7150
B10 | 2290
B11 | 2890
B12 | 9080
B13 | 3020
B14 | 5270
B15 | 7400
B16 | 9770

biological target: T1, human TGFßRII (antigen of the Octet …); assay: BLI (Octet); remark: another data set of the same source

Binder | Kd [pM]
B17 | 109
B18 | 1300
B19 | 1580
B20 | 300000
B21 | 761
B22 | 569
B23 | 4000
B24 | 315
B25 | 601
B26 | 4160
B27 | 361
B28 | 402
B29 | 66.2
B30 | 699
B31 | 160
B32 | 2240

Binder | Kd [pM]
B33 | 455
B34 | 2340
B35 | 547
B36 | 749
B37 | 141
B38 | 2410
B39 | 601
B40 | 624
B41 | 139
B42 | 492
B43 | 74.7
B44 | 3470
B45 | 512
B46 | 431
B47 | 898
